Molecular target: T1, soluble MET ectodomain (MET928) (human, UniProt P08581 25-932)
T1 construct: MET receptor tyrosine kinase, human, soluble complete ectodomain (MET928)
Assay: fluorescence correlation spectroscopy (FCS); in solution; 1 nM InlB-ATTO647N, MET928 titrated from 0.01 nM to 1-2 uM; PBS with 0.05% Tween-20; at least 3 h at room temperature; objective at 20°C; diffusion time fitted to a 1:1 binding model
Settings: both partners purified

T1 sequence (P08581 25-932): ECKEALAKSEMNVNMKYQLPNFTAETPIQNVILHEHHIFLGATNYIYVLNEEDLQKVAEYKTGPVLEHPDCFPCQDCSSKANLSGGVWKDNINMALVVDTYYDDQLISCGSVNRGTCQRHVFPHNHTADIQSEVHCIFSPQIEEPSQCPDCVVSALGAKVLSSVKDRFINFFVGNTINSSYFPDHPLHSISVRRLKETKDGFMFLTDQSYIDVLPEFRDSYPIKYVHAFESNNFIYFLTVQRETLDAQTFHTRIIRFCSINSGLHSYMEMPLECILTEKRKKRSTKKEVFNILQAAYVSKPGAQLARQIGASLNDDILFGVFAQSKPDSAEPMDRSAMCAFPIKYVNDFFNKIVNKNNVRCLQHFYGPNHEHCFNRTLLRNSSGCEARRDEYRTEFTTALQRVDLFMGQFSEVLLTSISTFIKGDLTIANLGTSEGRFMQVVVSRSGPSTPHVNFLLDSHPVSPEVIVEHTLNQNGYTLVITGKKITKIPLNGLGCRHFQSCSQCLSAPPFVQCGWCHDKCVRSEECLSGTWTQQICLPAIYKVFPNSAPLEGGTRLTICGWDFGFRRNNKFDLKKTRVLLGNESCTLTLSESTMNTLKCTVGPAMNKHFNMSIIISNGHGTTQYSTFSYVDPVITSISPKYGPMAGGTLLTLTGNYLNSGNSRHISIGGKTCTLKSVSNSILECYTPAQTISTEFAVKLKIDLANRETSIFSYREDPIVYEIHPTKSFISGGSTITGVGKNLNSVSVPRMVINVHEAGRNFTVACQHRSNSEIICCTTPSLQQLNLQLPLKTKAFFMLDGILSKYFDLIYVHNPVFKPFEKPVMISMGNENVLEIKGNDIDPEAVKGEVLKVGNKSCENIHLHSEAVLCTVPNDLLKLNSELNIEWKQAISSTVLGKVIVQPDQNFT

B1: InlB-ATTO647N (InlB321 with C242A and K280C, labelled with ATTO647N at C280) (domain or fragment)
chain: ETITVPTPIKQIFSDDAFAETIKDNLKKKSVTDAVTQNELNSIDQIIANNSDIKSVQGIQYLPNVTKLFLNGNKLTDIKPLANLKNLGWLFLDENKVKDLSSLKDLKKLKSLSLEHNGISDINGLVHLPQLESLYLGNNKITDITVLSRLTKLDTLSLEDNQISDIVPLAGLTKLQNLYLSKNHISDLRALAGLKNLDVLELFSQEALNKPINHQSNLVVPNTVKNTDGSLVTPEIISDDGDYECPNVKWHLPEFTNEVSFIFYQPVTIGKAKARFHGRVTQPLKE
modifications: ATTO647N attached to C280 by maleimide coupling (degree of labeling 0.5)
notes: internalin B (InlB) of Listeria monocytogenes, N-terminal internalin domain, amino acids 36-321 (InlB321); either way residue 280 is cysteine; also called dye-labeled InlB321; internalin domain of InlB
Kd: 5 ± 0.8 nM

— paper PMC3674922, “Single-molecule photobleaching reveals increased MET receptor dimerization upon ligand binding in intact cells” (BMC Biophysics, 2013)
